Data on one substance can be found in PMC2943749.

This experiment deals with PtdIns5P 4-kinase IIβ, genomically tagged with a FLAG-(His6)2 tag (DT40 cell line JPR3) (chicken (endogenous in DT40)). Briefly: affinity purification with mass spectrometry.

“And” between values parts separate entries of the source, which are not always exact repeats. Equal values may be shown once.

On to “PtdIns5P 4-kinase IIα, endogenous and untagged (in JPR3 DT40 cells) (from UniProt Q5F356 1-405) (enzyme)”, for which the ratio IIβ/IIα in the pull-down (peptide set 559/565) is 1.39 and 1.37 and 1.75; the ratio IIβ/IIα in the pull-down (peptide set 829/828) was 0.92 and 1.41 and 1.47.
